Experimental findings from patent US5731185 are described below.

The subject of this series is HphI restriction endonuclease (Haemophilus parahaemolyticus). Nature of the series: cleavage_in_vitro. The note with it: crude extract cleaves lambda DNA; pAGR3-Rg1 clones in ER2252 about 750 units/g.

lambda DNA gave an activity (units/g cells) of 5000.
